Source: IntAct's records for PubMed 29039417

B1: BBSome complex member BBS4 (Homo sapiens), Q96RK4 (parent)
chain: MAEERVATRTQFPVSTESQKPRQKKAPEFPILEKQNWLIHLHYIRKDYEACKAVIKEQLQETQGLCEYAIYVQALIFRLEGNIQESLELFQTCAVLSPQSADNLKQVARSLFLLGKHKAAIEVYNEAAKLNQKDWEISHNLGVCYIYLKQFNKAQDQLHNALNLNRHDLTYIMLGKIHLLEGDLDKAIEVYKKAVEFSPENTELLTTLGLLYLQLGIYQKAFEHLGNALTYDPTNYKAILAAGSMMQTHGDFDVALTKYRVVACAVPESPPLWNNIGMCFFGKKKYVAAISCLKRANYLAPFDWKILYNLGLVHLTMQQYASAFHFLSAAINFQPKMGELYMLLAVALTNLEDIENAKRAYAEAVHLDKCNPLVNLNYAVLLYNQGEKKNALAQYQEMEKKVSLLKDNSSLEFDSEMVEMAQKLGAALQVGEALVWTKPVKDPKSKHQTTSTSKPASFQQPLGSNQALGQAMSSAAAYRTLPSGAGGTSQFTKPPSLPLEPEPAVESSPTETSEQIREK
partner: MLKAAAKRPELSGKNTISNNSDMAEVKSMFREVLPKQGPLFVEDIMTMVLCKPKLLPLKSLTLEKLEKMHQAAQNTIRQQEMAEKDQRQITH

Variants of: B1
Conditions: with bbip1_human BBIP1, A8MTZ0

| Variant | effect of a mutation on the interaction |
| --- | --- |
| MAEERVATRTQFPVSTESQKPRQKKAPEFPILEKQNWLIHLHYIRKDYEACKAVIKEQLQETQGLCEYAIYVQALIFRLEGNIQESLELFQTCAVLSPQSADNLKQVARSLFLLGKHKAAIEVYNEAAKLNQKDWEISHNLGVCYIYLKQFNKAQDQLHNALNLNRHDLTYIMLGKIHLLEGDLDKAIEVYKKAVEFSPENTELLTTLGLLYLQLGIYQKAFEHLGNALTYDPTNYKAILAAGSMMQTHGDFDVALTKYRVVACAVPESPPLWNNIGMCFFGKKKYVAAISCLKRANYLAPFDWKILYNLGLVHLTMQQYASAFHFLSAAINFQPKMGELYMLLAVALTNLEDIENAKRAYAEAVHLDKCNPLVNLNYAVLLYNQGEKKNALAQYQEMEKKVSLLKDNSSLAFDSEMVEMAQKLGAALQVGEALVWTKPVKDPKSKHQTTSTSKPASFQQPLGSNQALGQAMSSAAAYRTLPSGAGGTSQFTKPPSLPLEPEPAVESSPTETSEQIREK [E412A] | with no effect |
| MAEERVATRTQFPVSTESQKPRQKKAPEFPILEKQNWLIHLHYIRKDYEACKAVIKEQLQETQGLCEYAIYVQALIFRLEGNIQESLELFQTCAVLSPQSADNLKQVARSLFLLGKHKAAIEVYNEAAKLNQKDWEISHNLGVCYIYLKQFNKAQDQLHNALNLNRHDLTYIMLGKIHLLEGDLDKAIEVYKKAVEFSPENTELLTTLGLLYLQLGIYQKAFEHLGNALTYDPTNYKAILAAGSMMQTHGDFDVALTKYRVVACAVPESPPLWNNIGMCFFGKKKYVAAISCLKRANYLAPFDWKILYNLGLVHLTMQQYASAFHFLSAAINFQPKMGELYMLLAVALTNLEDIENAKRAYAEAVHLDKCNPLVNLNYAVLLYNQGEKKNALAQYQEMEKKVSLLKDNSSLKFDSEMVEMAQKLGAALQVGEALVWTKPVKDPKSKHQTTSTSKPASFQQPLGSNQALGQAMSSAAAYRTLPSGAGGTSQFTKPPSLPLEPEPAVESSPTETSEQIREK [E412K] | with no effect |
| MAEERVATRTQFPVSTESQKPRQKKAPEFPILEKQNWLIHLHYIRKDYEACKAVIKEQLQETQGLCEYAIYVQALIFRLEGNIQESLELFQTCAVLSPQSADNLKQVARSLFLLGKHKAAIEVYNEAAKLNQKDWEISHNLGVCYIYLKQFNKAQDQLHNALNLNRHDLTYIMLGKIHLLEGDLDKAIEVYKKAVEFSPENTELLTTLGLLYLQLGIYQKAFEHLGNALTYDPTNYKAILAAGSMMQTHGDFDVALTKYRVVACAVPESPPLWNNIGMCFFGKKKYVAAISCLKRANYLAPFDWKILYNLGLVHLTMQQYASAFHFLSAAINFQPKMGELYMLLAVALTNLEDIENAKRAYAEAVHLDKCNPLVNLNYAVLLYNQGEKKNALAQYQEMEKKVSLLKDNESLEFDSEMVEMAQKLGAALQVGEALVWTKPVKDPKSKHQTTSTSKPASFQQPLGSNQALGQAMSSAAAYRTLPSGAGGTSQFTKPPSLPLEPEPAVESSPTETSEQIREK [S409E] | with no effect |
| MAEERVATRTQFPVSTESQKPRQKKAPEFPILEKQNWLIHLHYIRKDYEACKAVIKEQLQETQGLCEYAIYVQALIFRLEGNIQESLELFQTCAVLSPQSADNLKQVARSLFLLGKHKAAIEVYNEAAKLNQKDWEISHNLGVCYIYLKQFNKAQDQLHNALNLNRHDLTYIMLGKIHLLEGDLDKAIEVYKKAVEFSPENTELLTTLGLLYLQLGIYQKAFEHLGNALTYDPTNYKAILAAGSMMQTHGDFDVALTKYRVVACAVPESPPLWNNIGMCFFGKKKYVAAISCLKRANYLAPFDWKILYNLGLVHLTMQQYASAFHFLSAAINFQPKMGELYMLLAVALTNLEDIENAKRAYAEAVHLDKCNPLVNLNYAVLLYNQGEKKNALAQYQEMEKKVSLLKDNASLEFDSEMVEMAQKLGAALQVGEALVWTKPVKDPKSKHQTTSTSKPASFQQPLGSNQALGQAMSSAAAYRTLPSGAGGTSQFTKPPSLPLEPEPAVESSPTETSEQIREK [S409A] | with no effect |
| MAEERVATRTQFPVSTESQKPRQKKAPEFPILEKQNWLIHLHYIRKDYEACKAVIKEQLQETQGLCEYAIYVQALIFRLEGNIQESLELFQTCAVLSPQSADNLKQVARSLFLLGKHKAAIEVYNEAAKLNQKDWEISHNLGVCYIYLKQFNKAQDQLHNALNLNRHDLTYIMLGKIHLLEGDLDKAIEVYKKAVEFSPENTELLTTLGLLYLQLGIYQKAFEHLGNALTYDPTNYKAILAAGSMMQTHGDFDVALTKYRVVACAVPESPPLWNNIGMCFFGKKKYVAAISCLKRANYLAPFDWKILYNLGLVHLTMQQYASAFHFLSAAINFQPKMGELYMLLAVALTNLEDIENAKRAYAEAVHLDKCNPLVNLNYAVLLYNQGEKKNALAQYQEMEKKVSLLKDNKSLEFDSEMVEMAQKLGAALQVGEALVWTKPVKDPKSKHQTTSTSKPASFQQPLGSNQALGQAMSSAAAYRTLPSGAGGTSQFTKPPSLPLEPEPAVESSPTETSEQIREK [S409K] | with no effect |
| MAEERVATRTQFPVSTESQKPRQKKAPEFPILEKQNWLIHLHYIRKDYEACKAVIKEQLQETQGLCEYAIYVQALIFRLEGNIQESLELFQTCAVLSPQSADNLKQVARSLFLLGKHKAAIEVYNEAAKLNQKDWEISHNLGVCYIYLKQFNKAQDQLHNALNLNRHDLTYIMLGKIHLLEGDLDKAIEVYKKAVEFSPENTELLTTLGLLYLQLGIYQKAFEHLGNALTYDPTNYKAILAAGSMMQTHGDFDVALTKYRVVACAVPESPPLWNNIGMCFFGKKKYVAAISCLKRANYLAPFDWKILYNLGLVHLTMQQYASAFHFLSAAINFQPKMGELYMLLAVALTNLEDIENAKRAYAEAVHLDKCNPLVNLNYAVLLYNQGEKKNALAQYQEMEKKVSLLKDNSALEFDSEMVEMAQKLGAALQVGEALVWTKPVKDPKSKHQTTSTSKPASFQQPLGSNQALGQAMSSAAAYRTLPSGAGGTSQFTKPPSLPLEPEPAVESSPTETSEQIREK [S410A] | with no effect |
| MAEERVATRTQFPVSTESQKPRQKKAPEFPILEKQNWLIHLHYIRKDYEACKAVIKEQLQETQGLCEYAIYVQALIFRLEGNIQESLELFQTCAVLSPQSADNLKQVARSLFLLGKHKAAIEVYNEAAKLNQKDWEISHNLGVCYIYLKQFNKAQDQLHNALNLNRHDLTYIMLGKIHLLEGDLDKAIEVYKKAVEFSPENTELLTTLGLLYLQLGIYQKAFEHLGNALTYDPTNYKAILAAGSMMQTHGDFDVALTKYRVVACAVPESPPLWNNIGMCFFGKKKYVAAISCLKRANYLAPFDWKILYNLGLVHLTMQQYASAFHFLSAAINFQPKMGELYMLLAVALTNLEDIENAKRAYAEAVHLDKCNPLVNLNYAVLLYNQGEKKNALAQYQEMEKKVSLLKDNSKLEFDSEMVEMAQKLGAALQVGEALVWTKPVKDPKSKHQTTSTSKPASFQQPLGSNQALGQAMSSAAAYRTLPSGAGGTSQFTKPPSLPLEPEPAVESSPTETSEQIREK [S410K] | with no effect |
| MAEERVATRTQFPVSTESQKPRQKKAPEFPILEKQNWLIHLHYIRKDYEACKAVIKEQLQETQGLCEYAIYVQALIFRLEGNIQESLELFQTCAVLSPQSADNLKQVARSLFLLGKHKAAIEVYNEAAKLNQKDWEISHNLGVCYIYLKQFNKAQDQLHNALNLNRHDLTYIMLGKIHLLEGDLDKAIEVYKKAVEFSPENTELLTTLGLLYLQLGIYQKAFEHLGNALTYDPTNYKAILAAGSMMQTHGDFDVALTKYRVVACAVPESPPLWNNIGMCFFGKKKYVAAISCLKRANYLAPFDWKILYNLGLVHLTMQQYASAFHFLSAAINFQPKMGELYMLLAVALTNLEDIENAKRAYAEAVHLDKCNPLVNLNYAVLLYNQGEKKNALAQYQEMEKKVSLLKDNSELEFDSEMVEMAQKLGAALQVGEALVWTKPVKDPKSKHQTTSTSKPASFQQPLGSNQALGQAMSSAAAYRTLPSGAGGTSQFTKPPSLPLEPEPAVESSPTETSEQIREK [S410E] | with no effect |
| MAEERVATRTQFPVSTESQKPRQKKAPEFPILEKQNWLIHLHYIRKDYEACKAVIKEQLQETQGLCEYAIYVQALIFRLEGNIQESLELFQTCAVLSPQSADNLKQVARSLFLLGKHKAAIEVYNEAAKLNQKDWEISHNLGVCYIYLKQFNKAQDQLHNALNLNRHDLTYIMLGKIHLLEGDLDKAIEVYKKAVEFSPENTELLTTLGLLYLQLGIYQKAFEHLGNALTYDPTNYKAILAAGSMMQTHGDFDVALTKYRVVACAVPESPPLWNNIGMCFFGKKKYVAAISCLKRANYLAPFDWKILYNLGLVHLTMQQYASAFHFLSAAINFQPKMGELYMLLAVALTNLEDIENAKRAYAEAVHLDKCNPLVNLNYAVLLYNQGEKKNALAQYQEMEKKVSLLKDNSSKEFDSEMVEMAQKLGAALQVGEALVWTKPVKDPKSKHQTTSTSKPASFQQPLGSNQALGQAMSSAAAYRTLPSGAGGTSQFTKPPSLPLEPEPAVESSPTETSEQIREK [L411K] | with no effect |
| MAEERVATRTQFPVSTESQKPRQKKAPEFPILEKQNWLIHLHYIRKDYEACKAVIKEQLQETQGLCEYAIYVQALIFRLEGNIQESLELFQTCAVLSPQSADNLKQVARSLFLLGKHKAAIEVYNEAAKLNQKDWEISHNLGVCYIYLKQFNKAQDQLHNALNLNRHDLTYIMLGKIHLLEGDLDKAIEVYKKAVEFSPENTELLTTLGLLYLQLGIYQKAFEHLGNALTYDPTNYKAILAAGSMMQTHGDFDVALTKYRVVACAVPESPPLWNNIGMCFFGKKKYVAAISCLKRANYLAPFDWKILYNLGLVHLTMQQYASAFHFLSAAINFQPKMGELYMLLAVALTNLEDIENAKRAYAEAVHLDKCNPLVNLNYAVLLYNQGEKKNALAQYQEMEKKVSLLKDNSSEEFDSEMVEMAQKLGAALQVGEALVWTKPVKDPKSKHQTTSTSKPASFQQPLGSNQALGQAMSSAAAYRTLPSGAGGTSQFTKPPSLPLEPEPAVESSPTETSEQIREK [L411E] | with no effect |
| MAEERVATRTQFPVSTESQKPRQKKAPEFPILEKQNWLIHLHYIRKDYEACKAVIKEQLQETQGLCEYAIYVQALIFRLEGNIQESLELFQTCAVLSPQSADNLKQVARSLFLLGKHKAAIEVYNEAAKLNQKDWEISHNLGVCYIYLKQFNKAQDQLHNALNLNRHDLTYIMLGKIHLLEGDLDKAIEVYKKAVEFSPENTELLTTLGLLYLQLGIYQKAFEHLGNALTYDPTNYKAILAAGSMMQTHGDFDVALTKYRVVACAVPESPPLWNNIGMCFFGKKKYVAAISCLKRANYLAPFDWKILYNLGLVHLTMQQYASAFHFLSAAINFQPKMGELYMLLAVALTNLEDIENAKRAYAEAVHLDKCNPLVNLNYAVLLYNQGEKKNALAQYQEMEKKVSLLKDNSSAEFDSEMVEMAQKLGAALQVGEALVWTKPVKDPKSKHQTTSTSKPASFQQPLGSNQALGQAMSSAAAYRTLPSGAGGTSQFTKPPSLPLEPEPAVESSPTETSEQIREK [L411A] | with no effect |
| MAEERVATRTQFPVSTESQKPRQKKAPEFPILEKQNWLIHLHYIRKDYEACKAVIKEQLQETQGLCEYAIYVQALIFRLEGNIQESLELFQTCAVLSPQSADNLKQVARSLFLLGKHKAAIEVYNEAAKLNQKDWEISHNLGVCYIYLKQFNKAQDQLHNALNLNRHDLTYIMLGKIHLLEGDLDKAIEVYKKAVEFSPENTELLTTLGLLYLQLGIYQKAFEHLGNALTYDPTNYKAILAAGSMMQTHGDFDVALTKYRVVACAVPESPPLWNNIGMCFFGKKKYVAAISCLKRANYLAPFDWKILYNLGLVHLTMQQYASAFHFLSAAINFQPKMGELYMLLAVALTNLEDIENAKRAYAEAVHLDKCNPLVNLNYAVLLYNQGEKKNALAQYQEMEKKVSLLKDNSSLEADSEMVEMAQKLGAALQVGEALVWTKPVKDPKSKHQTTSTSKPASFQQPLGSNQALGQAMSSAAAYRTLPSGAGGTSQFTKPPSLPLEPEPAVESSPTETSEQIREK [F413A] | with no effect |
